Data published in patent US20230295324A1 (published 2023).
Where two headings read alike, the source gives them in different places.

Legend:
[1] = molecular target: T1, cynomolgus monkey OX40 protein (Novoprotein, #CB17) (cynomolgus monkey); assay: ELISA, coated cyno OX40 protein
T1 construct: Bought recombinant protein; also called cyno OX40

[2] = molecular target: T2, human OX40 protein (Acro biosystem, #OX0-H5224) (human, UniProt P43489 29-216); assay: ELISA, coated human OX40 protein
T2 construct: Bought recombinant protein
T2 sequence (looked up): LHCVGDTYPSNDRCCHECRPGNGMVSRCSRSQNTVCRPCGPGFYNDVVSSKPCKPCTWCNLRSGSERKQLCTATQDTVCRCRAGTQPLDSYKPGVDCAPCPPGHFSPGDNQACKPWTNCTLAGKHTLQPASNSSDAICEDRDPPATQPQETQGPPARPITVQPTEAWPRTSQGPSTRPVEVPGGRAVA

[3] = molecular target: T3, human OX40 on cells (CHO-K1/hu OX40) (human, UniProt P43489 29-277); assay: cell-based or functional assay
T3 sequence (looked up): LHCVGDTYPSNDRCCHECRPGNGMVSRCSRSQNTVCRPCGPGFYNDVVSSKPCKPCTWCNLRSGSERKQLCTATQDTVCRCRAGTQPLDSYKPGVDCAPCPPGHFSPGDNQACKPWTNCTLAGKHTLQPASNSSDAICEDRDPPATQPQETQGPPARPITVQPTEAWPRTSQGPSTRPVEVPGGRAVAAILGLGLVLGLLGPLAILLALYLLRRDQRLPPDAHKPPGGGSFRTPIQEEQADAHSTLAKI

[4] = molecular target: T2, human OX40 protein (Acro biosystem, …); assay: ELISA, coated human OX40 protein; remark: listed apart in the source
Method: This example is intended to investigate the in vitro binding activity of the anti-OX40 HCAb monoclonal antibodies prepared in Example 1 to human and cynomolgus monkey OX40 proteins. The antibody binding assay at the protein level was performed using a human OX40 protein (Acro biosystem, #OX0-H5224) and a cynomolgus monkey OX40 protein (Novoprotein, #CB17). Briefly, a 384-well plate (PerkinElmer, #6007509) was coated with 1 μg/mL human OX40 protein and a cynomolgus monkey OX40 protein dissolved in PBS at 20 μL/well, and incubated at 4° C. overnight. The next day, the 384-well plate was washed three times with PBS containing 0.05% Tween (MEDICAGO, #09-9410-100), and blocked with PBS containing 2% milk (Bio-Rad, #170-6404) at 37° C. for 1 h. […] The plate was added with a stop buffer (BBI life sciences, #E661006-0200) at 20 μL/well, and read for OD₄₅₀₋₆₅₀ values using a plate reader (Molecular Devices, model: SpectraMax Plus). The values were analyzed with Graphad 8.0 and plotted.

[5] = molecular target: T3, human OX40 on cells (CHO-K1/hu OX40); assay: FACS, CHO-K1/hu OX40 cells
Outline: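 Binding of anti-human OX40 HCAb antibodies measured by flow cytometry on CHO-K1 cells stably overexpressing human OX40. Cells incubated with 3-fold serially diluted antibodies 1 h at 4 °C in the dark, washed, then secondary staining 30 min at 4 °C; fluorescence read by FACS.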

[6] = molecular target: T3, human OX40 on cells (CHO-K1/hu OX40); assay: FACS, blocking of biotin-human OX40L on CHO-K1/hu OX40 cells

B1: PR002055 (antibody, human IgG1, V domains shown)
VH: EVQLLESGGGLVQPGGSLRLSCAASGLTFSSYAMSWVRQAPGKGLEWISAISGGGGSTYYADSVRGRFTISRDNSKNTLYLQMNSLRAEDTAVYYCANGMTGSTDVDYWGQGTLVTVSS
notes: no light chain; also called anti-OX40 HCAb antibody
[1]
  EC50: 0.0452 nM
  Maximum OD: 1.74 OD
[2]
  EC50: 0.0268 nM
  Maximum OD: 1.41 OD
[3]
  EC50, HEK293/OX40/NF-kb luciferase reporter: 4.66 nM
  Maximum fluorescence signal value, HEK293/OX40/NF-kb luciferase reporter: 141000 luminescence
[4]
  EC50: < 0.05 nM
[5]
  EC50: 3.18 nM
  Maximum MFI: 2240 MFI
[6]
  IC50: 59.9 nM
  Maximum inhibition rate (%): 19%
